In test [1] the target is T1, kinetocore associated 2 (KNTC2), endogenous protein of LC319 lung-cancer cells (human, UniProt O14777 1-642).
T1 construct: Endogenous protein in lysates of the human lung-cancer cell line LC319; Seen as a 75-kDa band and identified by MALDI-TOF mass spectrometry; also called endogenous KNTC2
T1 sequence: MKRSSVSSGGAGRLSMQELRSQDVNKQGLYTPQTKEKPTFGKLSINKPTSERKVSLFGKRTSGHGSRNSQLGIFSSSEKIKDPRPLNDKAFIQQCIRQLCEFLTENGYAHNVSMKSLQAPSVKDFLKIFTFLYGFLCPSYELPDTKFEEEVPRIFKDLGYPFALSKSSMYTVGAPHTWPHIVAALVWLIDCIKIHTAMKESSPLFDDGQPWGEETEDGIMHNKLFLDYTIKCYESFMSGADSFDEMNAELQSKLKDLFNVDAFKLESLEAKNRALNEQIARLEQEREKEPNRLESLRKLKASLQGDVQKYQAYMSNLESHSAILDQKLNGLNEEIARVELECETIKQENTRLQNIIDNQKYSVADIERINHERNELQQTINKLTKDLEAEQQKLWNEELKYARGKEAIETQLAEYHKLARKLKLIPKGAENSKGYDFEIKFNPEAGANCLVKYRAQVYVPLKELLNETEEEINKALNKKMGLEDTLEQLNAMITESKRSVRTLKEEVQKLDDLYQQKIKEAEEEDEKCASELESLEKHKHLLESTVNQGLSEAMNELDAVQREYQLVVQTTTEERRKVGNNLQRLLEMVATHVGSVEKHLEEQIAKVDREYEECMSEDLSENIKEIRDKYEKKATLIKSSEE
In words: immunoprecipitation with KNTC2 polyclonal antibody from LC319 cells transfected with pCAGGSn3Fc-CDCA1, anti-FLAG M2 immunoblot. On the procedure:
(f) Identification of CDCA1-associated Proteins: Cell extracts from lung-cancer cell line LC319 were pre-cleared by incubation at 4° C. for 1 hour with 50 μl of protein A and G-agarose beads, in final volumes of 2 ml of immunoprecipitation buffer (0.5% NP-40, 50 mM Tris-HCl, 150 mM NaCl) in the presence of proteinase inhibitor. After centrifugation at 1,000 rpm for 5 min at 4° C., the supernatants were incubated at 4° C. with anti-CDCA1 polyclonal antibody, anti-KNTC2 polyclonal antibody, or normal rabbit IgG for 2 hours. After incubation at 4° C. for 1 hour with 50 μl of protein A and G-agarose beads, the beads were collected from each sample by centrifugation at 5,000 rpm for 2 min and washed six times with 1 ml of immunoprecipitation buffer, and the washed beads were re-suspended in 50 μl of Laemmli sample buffer and boiled for 5 min before the proteins were separated on 5-10% SDS PAGE gels (BIO RAD). After electrophoresis, the gels were stained with silver. […] The nucleotide sequence of each cDNA clone was determined with an ABI Prism 3700 DNA sequencer (Applied Biosystems, Foster City, Calif.), using T3, T7, or synthetic oligonucleotide primers according to the manufacturer's instructions. […]

In test [2] the target is T1, kinetocore associated 2 (KNTC2), …. In words: anti-Flag immunoprecipitation (FIG. 2C); also immunoprecipitation with anti-KNTC2 polyclonal antibody (FIG. 5A). On the procedure:
(§1) Cell extracts from lung-cancer cell line LC319, transfected with plasmids expressing eleven deletion-constructs of CDCA1 were pre-cleared by incubation at 4° C. for 1 hour with 100 μl of protein G-agarose beads in final volumes of 2 ml of immunoprecipitation buffer (0.5% NP-40, 50 mM Tris-HCl, 150 mM NaCl) in the presence of proteinase inhibitor. After centrifugation at 1,000 rpm for 5 min at 4° C., the supernatants were incubated at 4° C. with anti-FLAG M2 agarose for 2 hours. After the beads were collected from each sample by centrifugation at 5,000 rpm for 2 min and washed six times with 1 ml of immunoprecipitation buffer, the washed beads were re-suspended in 50 μl of Laemmli sample buffer and boiled for 5 min before the proteins were separated on 10% SDS PAGE gels. Immunoblot was performed using KNTC2 polyclonal antibody (Abcom, Inc.) and anti-FLAG M2 monoclonal antibody respectively (Sigma-Aldrich Co.).

Test [3] shares this target. In words: anti-Flag immunoprecipitation from transfected LC319 cells, immunoblot for KNTC2 (FIG. 2C). On the procedure:
as §1
Background: A western blot detects proteins with antibodies after separation by electrophoresis.

Test [4] has the same target. In words: anti-Flag immunoprecipitation from transfected LC319 cells, immunoblot for KNTC2 (FIG. 2D). The protocol:
as §1

B1: CDCA1 1-464 (full length), exogenous, expressed from pCAGGSn3Fc-CDCA1 in LC319 cells (other, not shown: small tags and cut ends)
chain: METLSFPRYNVAEIVIHIRNKILTGADGKNLTKNDLYPNPKPEVLHMIYMRALQIVYGIRLEHFYMMPVNSEVMYPHLMEGFLPFSNLVTHLDSFLPICRVNDFETADILCPKAKRTSRFLSGIINFIHFREACRETYMEFLWQYKSSADKMQQLNAAHQEALMKLERLDSVPVEEQEEFKQLSDGIQELQQSLNQDFHQKTIVLQEGNSQKKSNISEKTKRLNELKLLVVSLKEIQESLKTKIVDSPEKLKNYKEKMKDTVQKLKNARQEVVEKYEIYGDSVDCLPSCQLEVQLYQKKIQDLSDNREKLASILKESLNLEDQIESDESELKKLKTEENSFKRLMIVKKEKLATAQFKINKKHEDVKQYKRTVIEDCNKVQEKRGAVYERVTTINQEIQKIKLGIQQLKDAAEREKLKSQEIFLNLKTALEKYHDGIEKAAEDSYAKIDEKTAELKRKMFKMST
notes: It is treated as the same molecule here; also called exogenous CDCA1
On to B1, for which the binding result in test [1] was “binds”.

B2: CDCA1 200-464 deletion construct with C-terminal FLAG sequence (other)
chain: QKTIVLQEGNSQKKSNISEKTKRLNELKLLVVSLKEIQESLKTKIVDSPEKLKNYKEKMKDTVQKLKNARQEVVEKYEIYGDSVDCLPSCQLEVQLYQKKIQDLSDNREKLASILKESLNLEDQIESDESELKKLKTEENSFKRLMIVKKEKLATAQFKINKKHEDVKQYKRTVIEDCNKVQEKRGAVYERVTTINQEIQKIKLGIQQLKDAAEREKLKSQEIFLNLKTALEKYHDGIEKAAEDSYAKIDEKTAELKRKMFKMST
notes: Expressed by transfection in LC319 cells; also called dominant-negative fragment of CDCA1; not shown: C-terminal FLAG tag of the pCAGGS vector
For B2, the binding result in test [2] is reported as “binds”.

B3: CDCA1 1-148 deletion construct with C-terminal FLAG sequence (other)
chain: METLSFPRYNVAEIVIHIRNKILTGADGKNLTKNDLYPNPKPEVLHMIYMRALQIVYGIRLEHFYMMPVNSEVMYPHLMEGFLPFSNLVTHLDSFLPICRVNDFETADILCPKAKRTSRFLSGIINFIHFREACRETYMEFLWQYKSS
notes: Expressed by transfection in LC319 cells; not shown: C-terminal FLAG tag of the pCAGGS vector
Consider B3, for which the binding result in test [3] is reported as “no binding”.

B4: CDCA1 319-367 deletion construct with C-terminal FLAG sequence (other)
chain: NLEDQIESDESELKKLKTEENSFKRLMIVKKEKLATAQFKINKKHEDVK
notes: as for B3
On to B4, for which the binding result in test [4] is recorded as “no binding”.

B5: CDCA1 277-367 deletion construct with C-terminal FLAG sequence (other)
chain: EIYGDSVDCLPSCQLEVQLYQKKIQDLSDNREKLASILKESLNLEDQIESDESELKKLKTEENSFKRLMIVKKEKLATAQFKINKKHEDVK
notes: as for B3
Turning to B5, in test [4], the binding result is “no binding”.

B6: CDCA1 149-306 deletion construct with C-terminal FLAG sequence (other)
chain: ADKMQQLNAAHQEALMKLERLDSVPVEEQEEFKQLSDGIQELQQSLNQDFHQKTIVLQEGNSQKKSNISEKTKRLNELKLLVVSLKEIQESLKTKIVDSPEKLKNYKEKMKDTVQKLKNARQEVVEKYEIYGDSVDCLPSCQLEVQLYQKKIQDLSDN
notes: Expressed by transfection in LC319 cells; also called control; not shown: C-terminal FLAG tag of the pCAGGS vector
As to B6, in test [3], the binding result is recorded as “no binding”.
